In publication PMC7821693, “Revealing biophysical properties of KfrA-type proteins as a novel class of cytoskeletal, coiled-coil plasmid-encoded proteins”:
Values joined by “and” are separate entries in the source; they are usually repeats but may differ in a detail not shown here. Equal values may be shown once.

Legend:
[1] = target: His6-KfrA_(R751) (plasmid R751 (IncP-1β)); assay: cross-linking; glutaraldehyde at different concentrations, protein 0.1 mg/ml, 20 min at 25 °C, 0.05 M bicine-NaOH pH 8.5, 0.1 mM DTT, 0.4 M NaCl; products on SDS-PAGE
KfrA RA3 (His6-KfrARA3) [2] = target: T1, KfrA RA3 (His6-KfrARA3) (IncU plasmid RA3, UniProt Q209P3 1-355); assay: EMSA; two complexes, some smear; EMSA: 50 mM Tris-HCl pH 8.0, 10 mM MgCl2, 50 mM NaCl, 10 pmol DNA, 30 min at 37 C (legend: 25 C), 2.5% agarose in 0.5x TBE; TEM: 0.3 mg/ml protein, 50 mM sodium phosphate pH 7.5, 150 mM NaCl; conditions: protein: recombinant; chain copies: 2; blunt
T1 sequence: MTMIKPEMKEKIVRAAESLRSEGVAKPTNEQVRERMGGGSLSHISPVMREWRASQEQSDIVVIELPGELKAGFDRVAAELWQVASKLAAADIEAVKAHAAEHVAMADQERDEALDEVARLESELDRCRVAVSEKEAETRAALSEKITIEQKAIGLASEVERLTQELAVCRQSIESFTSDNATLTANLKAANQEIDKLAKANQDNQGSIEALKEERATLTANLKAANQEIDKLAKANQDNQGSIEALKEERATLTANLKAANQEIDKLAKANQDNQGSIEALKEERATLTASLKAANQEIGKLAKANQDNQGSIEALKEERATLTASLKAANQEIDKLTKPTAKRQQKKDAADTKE

[3] = target: T2, KfrA R751 (His6-KfrAR751) (IncP-1beta plasmid R751, UniProt P71173 1-342); assay: EMSA; complex unstable, smear; two complexes; EMSA: 50 mM Tris-HCl pH 8.0, 10 mM MgCl2, 50 mM NaCl, 10 pmol DNA, 30 min at 37 C (legend: 25 C), 2.5% agarose in 0.5x TBE; TEM: 0.3 mg/ml protein, 50 mM sodium phosphate pH 7.5, 150 mM NaCl; conditions: protein: recombinant; chain copies: 2; blunt
T2 sequence: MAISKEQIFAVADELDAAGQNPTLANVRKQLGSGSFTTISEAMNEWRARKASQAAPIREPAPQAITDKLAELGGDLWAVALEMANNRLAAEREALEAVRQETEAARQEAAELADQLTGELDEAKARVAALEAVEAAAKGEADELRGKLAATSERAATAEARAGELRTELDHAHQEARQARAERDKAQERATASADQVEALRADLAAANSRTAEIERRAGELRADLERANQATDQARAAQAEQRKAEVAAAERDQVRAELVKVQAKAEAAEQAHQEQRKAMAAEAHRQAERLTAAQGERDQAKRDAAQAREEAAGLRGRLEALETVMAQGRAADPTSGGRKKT

KfrA RA3 (His6-KfrARA3) [4] = target: T1, KfrA RA3 (His6-KfrARA3); assay: competition; unlabeled competitor vs labeled OKRA3; EMSA: 50 mM Tris-HCl pH 8.0, 10 mM MgCl2, 50 mM NaCl, 10 pmol DNA, 30 min at 37 C (legend: 25 C), 2.5% agarose in 0.5x TBE; TEM: 0.3 mg/ml protein, 50 mM sodium phosphate pH 7.5, 150 mM NaCl; conditions: protein: recombinant; chain copies: 2; blunt

## His6-KfrA_(R751) (natural protein)
[1]
  stoichiometry N: 2 and 4

B1: OKRA3 (#17/#18), 60 bp (dsDNA)
DNA 1: TCCGTTGTATTGTATGTATTGTATGTATTGTATTAAAATACAATACATACAATACAGGGA
DNA 2: TCCCTGTATTGTATGTATTGTATTTTAATACAATACATACAATACATACAATACAACGGA
KfrA RA3 (His6-KfrARA3) [2]
  binding result: binds

B2: OKR751 (#15/#16), 50 bp (dsDNA)
DNA 1: CTTGCGTAGTGTTGTATGTTGTAGTATGCTACACGCTACAACATACAACC
DNA 2: GGTTGTATGTTGTAGCGTGTAGCATACTACAACATACAACACTACGCAAG
[3]
  binding result: binds

B3: OG5/OD5 (#9/#10), specific competitor (dsDNA)
DNA 1: TATGTATTGTATGTATTGTATTAAAATACAATACATACAATACAGG
DNA 2: CCTGTATTGTATGTATTGTATTTTAATACAATACATACAATACATA
KfrA RA3 (His6-KfrARA3) [4]
  binding result: binds
